# Assay results reported in US20110262436A1, “TREATMENT METHOD” (Genentech, Inc., priority 2008, published 2011).
# Legend:
# c-met = c-met (Rattus norvegicus, UniProt P97523); test: Binding to c-met in rats
# [1] = system: KP4 human pancreatic ductal cell carcinoma cells; test: Dose response study in KP4 xenograft mice; assay type: in vivo; settings: from Day 21 effect vs. dose profile
# Description: In a dose response study, female nude (nu/nu) mice (age 6-8 weeks) were inoculated subcutaneously (SC) with 5×10^6 KP4 human pancreatic ductal cell carcinoma cells.
# In all cases, tumors were measured with calipers throughout the study.
# [2] = Estimation of human PK by allometric scaling; set-up: species or system humans
# Text: Estimation of Human PK Profile.
# One approach was allometric scaling, which is based on the assumption that many physical and physiological parameters vary according to a mathematical function of body weight (BW)
# Y=a×BWb • where Y is the variable of interest, a is the y-axis intercept, and b is slope.
# The log plot of CL value versus body weight, repression, and R-squared values were generated by KaleidaGraph (version 3.6).
# [3] = Repeat-dose safety study in cynomolgus monkeys; assay type: in vivo; settings: GLP toxicology study
# Text: Repeat-dose safety study.
# KP4 xenograft = test: PK/PD model of anti-tumor efficacy in KP4 xenograft mice (MTC); settings: individual MTC values (n=177) KP4 mice
# Description: PK parameter estimates were used as a forcing function to model the pharmacodynamic (PD) endpoint of tumor progression (PD) in KP4 xenograft mice.
# Tumor measurements were taken via with calipers, and mice entered the study with tumor volumes of approximately 200 mm^3. Study data up to 21 days from a total of 177 KP4 mice were used in the modeling analysis. Tumor volumes (mm^3) were converted to mass (mg) assuming 1 mm^3=1 mg tumor tissue. A mixed effects PK/pharmacodynamic (PD) model describing anti-tumor efficacy in KP4 xenograft mice was fit to the tumor data using NONMEM software (Double Precision, version V, level 1.0 UCSF, San Francisco Calif.).
# MTC is calculated from the differential equation describing tumor mass where (dTM(t)/dt=0)
# [4] = Phase I dose-escalation study: safety and tolerability; assay type: in vivo, humans
# Description: Study design. There are two stages to this study, a dose-escalation stage and an expansion stage.
# Study treatment. […] Dose levels tested in Phase I were: 1 mg/kg, 4 mg/kg, 10 mg/kg, 20 mg/kg, and 30 mg/kg.
# IL-8 = test: Phase I study: serum IL-8 levels by electrochemiluminescence; assay type: in vivo, humans
# Description: Pre- and post-dose serum is collected for evaluation of pharmacodynamic (PD) biomarkers that could be affected by inhibition of Met signaling. In addition, archival tissue is obtained for exploratory diagnostic assessments.
# Serum IL-8 levels (diluted 1:5) were determined using an electrochemiluminescence based method as directed by the manufacturer (Meso Scale Discovery, Gaithersburg Md.; Cat. No. K111ANC).
# Chain of c-met (P97523 25-1382): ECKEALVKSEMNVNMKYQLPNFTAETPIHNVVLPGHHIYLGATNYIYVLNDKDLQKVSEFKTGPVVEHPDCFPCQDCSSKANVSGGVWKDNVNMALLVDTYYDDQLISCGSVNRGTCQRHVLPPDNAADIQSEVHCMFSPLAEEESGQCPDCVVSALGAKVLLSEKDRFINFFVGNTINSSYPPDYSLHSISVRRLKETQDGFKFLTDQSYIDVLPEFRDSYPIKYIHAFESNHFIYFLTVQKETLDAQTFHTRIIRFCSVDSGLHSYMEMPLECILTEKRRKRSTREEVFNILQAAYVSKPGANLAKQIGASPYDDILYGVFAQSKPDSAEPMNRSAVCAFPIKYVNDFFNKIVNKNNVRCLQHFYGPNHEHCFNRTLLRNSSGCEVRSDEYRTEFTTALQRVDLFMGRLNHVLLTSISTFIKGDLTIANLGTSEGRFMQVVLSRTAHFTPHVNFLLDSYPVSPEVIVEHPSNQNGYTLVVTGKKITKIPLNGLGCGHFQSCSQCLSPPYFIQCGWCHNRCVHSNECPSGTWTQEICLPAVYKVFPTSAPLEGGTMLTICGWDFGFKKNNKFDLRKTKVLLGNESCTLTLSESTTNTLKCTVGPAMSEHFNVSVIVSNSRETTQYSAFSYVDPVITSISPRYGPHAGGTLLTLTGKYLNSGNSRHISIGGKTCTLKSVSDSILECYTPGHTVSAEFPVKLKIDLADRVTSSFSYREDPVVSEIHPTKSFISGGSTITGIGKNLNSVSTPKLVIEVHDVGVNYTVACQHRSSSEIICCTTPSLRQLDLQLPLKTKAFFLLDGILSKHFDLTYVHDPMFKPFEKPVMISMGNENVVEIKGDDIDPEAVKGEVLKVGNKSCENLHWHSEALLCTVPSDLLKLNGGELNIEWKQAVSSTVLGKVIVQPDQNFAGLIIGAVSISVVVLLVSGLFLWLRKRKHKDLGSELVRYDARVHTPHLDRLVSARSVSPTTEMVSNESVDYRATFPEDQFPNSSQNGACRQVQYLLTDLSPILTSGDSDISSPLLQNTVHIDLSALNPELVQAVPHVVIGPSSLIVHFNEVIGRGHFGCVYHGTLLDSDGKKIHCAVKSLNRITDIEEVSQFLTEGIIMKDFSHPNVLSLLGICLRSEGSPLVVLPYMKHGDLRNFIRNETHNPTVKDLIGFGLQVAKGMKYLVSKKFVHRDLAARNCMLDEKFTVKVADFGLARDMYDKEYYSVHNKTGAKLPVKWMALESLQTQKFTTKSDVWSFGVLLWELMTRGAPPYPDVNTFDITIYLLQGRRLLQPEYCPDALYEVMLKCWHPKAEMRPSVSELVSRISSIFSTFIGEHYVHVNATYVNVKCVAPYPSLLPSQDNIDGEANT
substance,measurement,setting,value
"MetMAb: recombinant, humanized, monovalent (one-armed) monoclonal antibody directed against human c-met",Binding to c-met,c-met,does not bind to c-met
same,Median efficacious dose (representative),[1],7.5 mg/kg
same,Minimal efficacious dose (representative),[1],2.5 mg/kg
same,Predicted clearance in humans,[2],10 mL/day/kg
same,Highest non-severely toxic dose,[3],100 mg/kg
same,"MTC, 90% of values",KP4 xenograft,below 110 μg/mL
same,Median MTC (Minimum Tumorostatic Concentration),KP4 xenograft,approximately 15 μg/mL
same,"Abdominal pain, drug-related, Grade 1 or 2 (patients)",[4]; Total (n = 21),0
same,"Abdominal pain, drug-related, Grade 3 (patients)",[4]; Total (n = 21),1 (4.8%)
same,"Anorexia, drug-related, Grade 1 or 2 (patients)",[4]; Total (n = 21),2
same,"Anorexia, drug-related, Grade 3 (patients)",[4]; Total (n = 21),0
same,"Any adverse event, drug-related, Grade 3 (patients)",[4]; Total (n = 21),2 (9.5%)
same,"Diarrhoea, drug-related, Grade 1 or 2 (patients)",[4]; Total (n = 21),1
same,"Diarrhoea, drug-related, Grade 3 (patients)",[4]; Total (n = 21),0
same,"Dysgeusia, drug-related, Grade 1 or 2 (patients)",[4]; Total (n = 21),1
same,"Dysgeusia, drug-related, Grade 3 (patients)",[4]; Total (n = 21),0
same,"Fatigue, drug-related, Grade 1 or 2 (patients)",[4]; Total (n = 21),7
same,"Fatigue, drug-related, Grade 3 (patients)",[4]; Total (n = 21),0
same,"Flushing, drug-related, Grade 1 or 2 (patients)",[4]; Total (n = 21),1
same,"Flushing, drug-related, Grade 3 (patients)",[4]; Total (n = 21),0
same,"Gastroesophageal reflux disease (GERD), drug-related, Grade 1 or 2 (patients)",[4]; Total (n = 21),1
same,"Gastroesophageal reflux disease (GERD), drug-related, Grade 3 (patients)",[4]; Total (n = 21),0
same,"Hypoalbuminaemia, drug-related, Grade 1 or 2 (patients)",[4]; Total (n = 21),2
same,"Hypoalbuminaemia, drug-related, Grade 3 (patients)",[4]; Total (n = 21),0
same,"Muscle spasms, drug-related, Grade 1 or 2 (patients)",[4]; Total (n = 21),1
same,"Muscle spasms, drug-related, Grade 3 (patients)",[4]; Total (n = 21),0
same,"Mydriasis, drug-related, Grade 1 or 2 (patients)",[4]; Total (n = 21),1
same,"Mydriasis, drug-related, Grade 3 (patients)",[4]; Total (n = 21),0
same,"Nausea, drug-related, Grade 1 or 2 (patients)",[4]; Total (n = 21),3
same,"Nausea, drug-related, Grade 3 (patients)",[4]; Total (n = 21),0
same,"Oedema peripheral, drug-related, Grade 1 or 2 (patients)",[4]; Total (n = 21),2
same,"Oedema peripheral, drug-related, Grade 3 (patients)",[4]; Total (n = 21),0
same,"Oral candidiasis, drug-related, Grade 1 or 2 (patients)",[4]; Total (n = 21),1
same,"Oral candidiasis, drug-related, Grade 3 (patients)",[4]; Total (n = 21),0
same,"Paraesthesia oral, drug-related, Grade 1 or 2 (patients)",[4]; Total (n = 21),1
same,"Paraesthesia oral, drug-related, Grade 3 (patients)",[4]; Total (n = 21),0
same,"Pyrexia, drug-related, Grade 1 or 2 (patients)",[4]; Total (n = 21),0
same,"Rash, drug-related, Grade 1 or 2 (patients)",[4]; Total (n = 21),1
same,"Rash, drug-related, Grade 3 (patients)",[4]; Total (n = 21),0
same,"Swelling face, drug-related, Grade 1 or 2 (patients)",[4]; Total (n = 21),1
same,"Swelling face, drug-related, Grade 3 (patients)",[4]; Total (n = 21),0
same,"Vomiting, drug-related, Grade 1 or 2 (patients)",[4]; Total (n = 21),3
same,"Vomiting, drug-related, Grade 3 (patients)",[4]; Total (n = 21),0
same,"Pyrexia, drug-related, Grade 3 (patients)","[4]; Total (n = 21), Dose Limiting Toxicity (DLT)",1 (4.8%)
same,Dose limiting toxicity (DLT),"[4]; at 4 mg/kg, doses up to 30 mg/kg",A single dose limiting toxicity (DLT) of Grade 3 pyrexia
same,Grade 3 toxicity of abdominal pain,[4]; at 20 mg/kg,One
same,Most commonly reported adverse event,[4]; dose-escalation,"fatigue (Grade 1, 2)"
same,Drug-related Grade 4 toxicities,"[4]; dose-escalation, 1-30 mg/kg",No drug-related Grade 4 toxicities
same,Safety and tolerability as a single agent,"[4]; doses up to 30 mg/kg, every 3 weeks",safe and generally well tolerated
same,Reduction in circulating IL-8,"IL-8; 24 h following treatment, subjects with baseline IL-8 >50 pg/ml",> 50%
same,Change in serum IL8 following MetMAb infusions,IL-8; most patients with baseline serum IL8 above normal controls,decrease in serum IL8
same,Change in IL-8 expression post-MetMAb treatment,IL-8; subjects with less than 50 pg/ml baseline IL-8,did not change significantly
